Test results as given in patent US20100280227A1 (Genentech, published 2010).
Several values for one entry are separate records, joined by “and”; a condition that tells them apart may be missing. Identical values can stand only once. Like-named read-outs stand apart in the source and are kept apart here.

T1: mouse BR3 extracellular domain (mouse, UniProt Q9D8D0 1-64)
T1 construct: also called mBR3-ECD; mBR-ECD
T1 sequence: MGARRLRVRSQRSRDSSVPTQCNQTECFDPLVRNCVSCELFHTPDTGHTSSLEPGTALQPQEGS


Assays:
[1] = molecular target: T2, human BR3 extracellular domain (human, UniProt Q96RJ3 1-61); assay: SPR, BR3 ECD on chip;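 also: Anti-BR3 antibodies passed over the chip at high flow in PBS with 0.05% polysorbate 20, on and off rates fitted together globally to a 1:1 binding model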
T2 construct: biotinylated where used as tracer; also called hBR3-ECD; BR3-ECD
Description: (§1) After coupling, unoccupied sites on the chip were blocked by injecting 20 μl of 1M ethanolamine, pH 8.5. The running buffer was PBS containing 0.05% polysorbate 20. […] The binding surface was regenerated by injecting 20-30 μl of 10 mM glycine.HCl (pH 1.5). […] Data were analyzed using a 1:1 binding model using global fitting. The association and dissociation rate constants were fitted simultaneously (BIAevaluation software).
(§2) A high flow rate was used in order to minimize mass transport effects.

[2] = molecular target: T3, variant human BR3-Fc fusion; assay: SPR, vBR3-Fc on chip;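 also: Anti-BR3 antibodies passed over chip-bound BR3-Fc in PBS with 0.05% polysorbate 20, on and off rates fitted together globally to a 1:1 binding model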
T3 construct: produced in CHO cells; also called vBR3-Fc; vhBR3-Fc
Description: as §1, §2

[3] = molecular target: T2, human BR3 extracellular domain; assay: phage competition ELISA
[4] = molecular target: T1, mouse BR3 extracellular domain; assay: phage competition ELISA

Kd [1]	koff [1]	kon [1]	Kd [2]	koff [2]	kon [2]	IC50 [3]	IC50 [4]	Kd ([2]; 140 RU BR3-Fc immobilized)	Kd ([2]; 380 RU BR3-Fc immobilized)	Binder
0.82 nM	0.00114 s⁻¹	1.39e+06 M⁻¹ s⁻¹	1.67 nM	0.000804 s⁻¹	480000 M⁻¹ s⁻¹	–	–	–	–	Hu2.1-94 Fab (Fab, V domains shown, Fab) VH: EVQLVESGGGLVQPGGSLRLSCAASGDSITRGYWNWVRQAPGKGLEWVGYINYSGTTYYNPSLKSRFTISRDTSKNTLYLQMNSLRAEDTAVYYCATSHNTGEMDYWGQGTLVTVSS VL: DIQMTQSPSSLSASVGDRVTITCRASESVDDYGISFMHWYQQKPGKAPKLLIYRASDLESGVPSRFSGSGSGTDFTLTISSLQPEDFATYYCQQTSKDPWTFGQGTKVEIKR
35.8 nM	0.00156 s⁻¹	40000 M⁻¹ s⁻¹	3.49 nM	0.00121 s⁻¹	350000 M⁻¹ s⁻¹	–	–	–	–	Hu2.1-40L Fab (Fab, V domains shown, Fab) VH: EVQLVESGGGLVQPGGSLRLSCAASGDSITRGYWNWVRQAPGKGLEWVGYINYSGTTYYNPSLKSRFTISRDTSKNTLYLQMNSLRAEDTAVYYCATTLPYGAMDYWGQGTLVTVSS VL: DIQMTQSPSSLSASVGDRVTITCRASESVDDYGISFMHWYQQKPGKAPKLLIYRASDLESGVPSRFSGSGSGTDFTLTISSLQPEDFATYYCQQTSKDPWTFGQGTKVEIKR
10 nM	0.00176 s⁻¹	180000 M⁻¹ s⁻¹	11.2 nM	0.00139 s⁻¹	120000 M⁻¹ s⁻¹	–	–	–	–	Hu2.1-RL Fab (Fab, V domains shown, Fab) VH: EVQLVESGGGLVQPGGSLRLSCAASGDSITRGYWNWVRQAPGKGLEWVGYINYSGTTYYNPSLKSRFTISRDTSKNTLYLQMNSLRAEDTAVYYCATPHTYGAMDYWGQGTLVTVSS VL: DIQMTQSPSSLSASVGDRVTITCRASESVDDYGISFMHWYQQKPGKAPKLLIYRASDLESGVPSRFSGSGSGTDFTLTISSLQPEDFATYYCQQTSKDPWTFGQGTKVEIKR
–	–	–	–	–	–	–	–	20 nM	21.8 nM	chimeric 9.1 Fab (Fab, V domains shown, Fab with murine variable domains; also called Ch 9.1 Fab) VH: EVKLVESGGGLVQPGGSLRLSCAISGFTVTAYYMSWVRQPPGKALEWLGFIRDKANGYTTEYNPSVKGRFTISRDNSQSIFYLQMNTLRAEDSATYYCAQVRRALDYWGQGTTVTVSA VL: DIVMSQSPSSLAVSVGEKVTMSCKSSQSLLYSSNQNNYLAWYQQKPGQSPKLLIYWASTRESGVPDRFTGSGSGTDFTLTISSVKAEDLAVYYCQQYYTYPYTFGGGT
0.7 nM and 0.65 nM	0.00105 s⁻¹ and 0.000954 s⁻¹	1.49e+06 M⁻¹ s⁻¹ and 1.47e+06 M⁻¹ s⁻¹	2.31 nM and 2.08 nM	0.00104 s⁻¹ and 0.000968 s⁻¹	450000 M⁻¹ s⁻¹ and 466000 M⁻¹ s⁻¹	–	–	–	–	Hu11G9-36 Fab (Fab, V domains shown, Fab) VH: EVQLVESGGGLVQPGGSLRLSCAASGDSINFGYWNWVRQAPGKGLEWVGYISYSGSTYYNPSLKSRFTISRDTSKNTFYLQMNSLRAEDTAVYYCAALNDLFLYFDVWGQGTLVTVSS VL: DIQMTQSPSSLSASVGDRVTITCRSSQSLVHSNGNTYLHWYQQKPGKAPKLLIYKVSNRFSGVPSRFSGSGSGTDFTLTISSLQPEDFATYYCSQSTHVPPFTFGQGTKVEIKR
0.025 nM	4.2e-05 s⁻¹	1.66e+06 M⁻¹ s⁻¹	0.288 nM	0.000186 s⁻¹	648000 M⁻¹ s⁻¹	–	–	–	–	Hu11G9-46 IgG (antibody, V domains shown, humanized IgG) VH: EVQLVESGGGLVQPGGSLRLSCAASGDSITSGYWNWVRQAPGKGLEWVGYISYSGSTYYNPSLKSRFTISRDTSKNTFYLQMNSLRAEDTAVYYCAGLNDLYLYFDVWGQGTLVTVSS VL: DIQMTQSPSSLSASVGDRVTITCRSSQSLVHSNGNTYLHWYQQKPGKAPKLLIYKVSNRFSGVPSRFSGSGSGTDFTLTISSLQPEDFATYYCSQSTHVPPFTFGQGTKVEIKR
0.024 nM	4.1e-05 s⁻¹	1.71e+06 M⁻¹ s⁻¹	0.4 nM	0.000231 s⁻¹	576000 M⁻¹ s⁻¹	–	–	–	–	Hu11G9-36 IgG (antibody, V domains shown, humanized IgG) VH: EVQLVESGGGLVQPGGSLRLSCAASGDSINFGYWNWVRQAPGKGLEWVGYISYSGSTYYNPSLKSRFTISRDTSKNTFYLQMNSLRAEDTAVYYCAALNDLFLYFDVWGQGTLVTVSS VL: DIQMTQSPSSLSASVGDRVTITCRSSQSLVHSNGNTYLHWYQQKPGKAPKLLIYKVSNRFSGVPSRFSGSGSGTDFTLTISSLQPEDFATYYCSQSTHVPPFTFGQGTKVEIKR

The remaining lines, values behind:

Binder	Kd [1]	koff [1]	kon [1]	Kd [2]	koff [2]	kon [2]	IC50 [3]	IC50 [4]	Kd ([2]; 140 RU BR3-Fc immobilized)	Kd ([2]; 380 RU BR3-Fc immobilized)
Hu2.1-46 Fab (Fab, V domains shown, Fab) VH: EVQLVESGGGLVQPGGSLRLSCAASGDSITRGYWNWVRQAPGKGLEWVGYINYSGTTYYNPSLKSRFTISRDTSKNTFYLQMNSLRAEDTAVYYCANSNFYGAMDYWGQGTLVTVSS VL: DIQMTQSPSSLSASVGDRVTITCRASESVDDYGISFMHWYQQKPGKAPKLLIYRASDLESGVPSRFSGSGSGTDFTLTISSLQPEDFATYYCQQTSKDPWTFGQGTKVEIKR	0.27 nM	0.000693 s⁻¹	2.55e+06 M⁻¹ s⁻¹	0.13 nM	0.000257 s⁻¹	1.96e+06 M⁻¹ s⁻¹	–	–	–	–
Hu2.1-40 Fab (Fab, V domains shown, Fab) VH: EVQLVESGGGLVQPGGSLRLSCAASGDSITRGYWNWVRQAPGKGLEWVGYINYSGTTYYNPSLKSRFTISRDTSKNTFYLQMNSLRAEDTAVYYCATTLPYGAMDYWGQGTLVTVSS VL: DIQMTQSPSSLSASVGDRVTITCRASESVDDYGISFMHWYQQKPGKAPKLLIYRASDLESGVPSRFSGSGSGTDFTLTISSLQPEDFATYYCQQTSKDPWTFGQGTKVEIKR	8.67 nM	0.000923 s⁻¹	110000 M⁻¹ s⁻¹	3.2 nM	0.00123 s⁻¹	380000 M⁻¹ s⁻¹	–	–	–	–
Hu2.1-30 Fab (Fab, V domains shown, Fab) VH: EVQLVESGGGLVQPGGSLRLSCAASGDSITRGYWNWVRQAPGKGLEWVGYINYSGTTYYNPSLKSRFTISRDTSKNTFYLQMNSLRAEDTAVYYCANLNYYGAMDYWGQGTLVTVSS VL: DIQMTQSPSSLSASVGDRVTITCRASESVDDYGISFMHWYQQKPGKAPKLLIYRASDLESGVPSRFSGSGSGTDFTLTISSLQPEDFATYYCQQTSKDPWTFGQGTKVEIKR	0.08 nM and 0.059 nM	0.000311 s⁻¹ and 0.000232 s⁻¹	3.84e+06 M⁻¹ s⁻¹ and 3.94e+06 M⁻¹ s⁻¹	0.07 nM and 0.092 nM	0.000157 s⁻¹ and 0.000222 s⁻¹	2.18e+06 M⁻¹ s⁻¹ and 2.41e+06 M⁻¹ s⁻¹	–	–	–	–
3 (Fab, V domains shown, also called V3-3) VH: EVQLVESGGGLVQPGGSLRLSCAASGFTISSNSIHWVRQAPGKGLEWVAWVTPSGGSTDYADSVKGRFTISADTSKNTAYLQMNSLRAEDTAVYYCARRVCYNRLGVCAGGMDYWGQGTLVTVSS VL: DIQMTQSPSSLSASVGDRVTITCRASQDVSTAVAWYQQKPGKAPKLLIYSASFLYSGVPSRFSGSGSGTDFTLTISSLQPEDFATYYCQQSRISPPTFGQGTKVEIKR	–	–	–	–	–	–	1.3 nM	16.1 nM	–	–
27 (Fab, V domains shown, also called V3-27) VH: EVQLVESGGGLVQPGGSLRLSCAASGFTISSNSIHWVRQAPGKGLEWVAWITPSDGNTDYADSVKGRFTISADTSKNTAYLQMNSLRAEDTAVYYCARRVCYNHLGVCAGGMDYWGQGTLVTVSS VL: DIQMTQSPSSLSASVGDRVTITCRASQDVSTAVAWYQQKPGKAPKLLIYSASFLYSGVPSRFSGSGSGTDFTLTISSLQPEDFATYYCQQSRMSPPTFGQGTKVEIKR	–	–	–	–	–	–	9.4 nM	1.4 nM	–	–
9 (Fab, V domains shown, also called V3-9) VH: EVQLVESGGGLVQPGGSLRLSCAASGFTISSNSIHWVRQAPGKGLEWVAWITPSDGNTDYADSVKGRFTISADTSKNTAYLQMNSLRAEDTAVYYCARRVCYNRLGVCAGGMDYWGQGTLVTVSS VL: DIQMTQSPSSLSASVGDRVTITCRASQDVSTAVAWYQQKPGKAPKLLIYSASFLYSGVPSRFSGSGSGTDFTLTISSLQPEDFATYYCQQSHNTPPTFGQGTKVEIKR	–	–	–	–	–	–	11.6 nM	6.1 nM	–	–
19 (Fab, V domains shown, also called V3-19) VH: EVQLVESGGGLVQPGGSLRLSCAASGFSIARSSIHWVRQAPGKGLEWVAWILPSAGSTDYADSVKGRFTISADTSKNTAYLQMNSLRAEDTAVYYCARRVCYNRLGVCAGGMDYWGQGTLVTVSS VL: DIQMTQSPSSLSASVGDRVTITCRASQDVSTAVAWYQQKPGKAPKLLIYSASFLYSGVPSRFSGSGSGTDFTLTISSLQPEDFATYYCQQSRITPPTFGQGTKVEIKR	–	–	–	–	–	–	1.3 nM	1.8 nM	–	–
16 (Fab, V domains shown, also called V3-16) VH: EVQLVESGGGLVQPGGSLRLSCAASGFSISSNSIHWVRQAPGKGLEWVAWITPTHGSTDYADSVKGRFTISADTSKNTAYLQMNSLRAEDTAVYYCARRVCYNRLGVCAGGMDYWGQGTLVTVSS VL: DIQMTQSPSSLSASVGDRVTITCRASQDVSTAVAWYQQKPGKAPKLLIYSASFLYSGVPSRFSGSGSGTDFTLTISSLQPEDFATYYCQQSRITPPTFGQGTKVEIKR	–	–	–	–	–	–	1.7 nM	16.8 nM	–	–
24 (Fab, V domains shown, also called V3-24) VH: EVQLVESGGGLVQPGGSLRLSCAASGFSIRSISIHWVRQAPGKGLEWVAWITPFNGTTDYADSVKGRFTISADTSKNTAYLQMNSLRAEDTAVYYCARRVCYNRLGVCAGGMDYWGQGTLVTVSS VL: DIQMTQSPSSLSASVGDRVTITCRASQDVSTAVAWYQQKPGKAPKLLIYSASFLYSGVPSRFSGSGSGTDFTLTISSLQPEDFATYYCQQSLITPPTFGQGTKVEIKR	–	–	–	–	–	–	0.6 nM	23 nM	–	–
34 (Fab, V domains shown, also called V3-34) VH: EVQLVESGGGLVQPGGSLRLSCAASGFSISNHSIHWVRQAPGKGLEWVAWVTPSYGITDYADSVKGRFTISADTSKNTAYLQMNSLRAEDTAVYYCARRVCYNRLGVCAGGMDYWGQGTLVTVSS VL: DIQMTQSPSSLSASVGDRVTITCRASQDVSTAVAWYQQKPGKAPKLLIYSASFLYSGVPSRFSGSGSGTDFTLTISSLQPEDFATYYCQQSRTTPPTFGQGTKVEIKR	–	–	–	–	–	–	0.3 nM	6.4 nM	–	–
5 (Fab, V domains shown, also called V3-5) VH: EVQLVESGGGLVQPGGSLRLSCAASGFTISSSSIHWVRQAPGKGLEWVAWITPGHGSTDYADSVKGRFTISADTSKNTAYLQMNSLRAEDTAVYYCARRVCYNRLGVCAGGMDYWGQGTLVTVSS VL: DIQMTQSPSSLSASVGDRVTITCRASQDVSTAVAWYQQKPGKAPKLLIYSASFLYSGVPSRFSGSGSGTDFTLTISSLQPEDFATYYCQQSRITPPTFGQGTKVEIKR	–	–	–	–	–	–	2.5 nM	40.9 nM	–	–
